# Assay: yeast display, Sf9 membrane polyspecificity reagent, FACS + sequencing; frameworks hold sequencing errors
# Outline: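 Synthetic nanobody libraries on Saccharomyces cerevisiae BJ5465 were galactose-induced for 36–48 hours, stained 1 hour at 4 °C with 10% biotinylated, detergent-solubilized Sf9 membrane reagent and enriched on streptavidin microbeads. FACS then separated cells into low and high (top ~1%) gates by anti-HA (expression) and streptavidin (reagent binding) fluorescence. Genes were colony-PCR amplified, MiSeq 2 × 250 sequenced and CDR-length filtered. A clone's polyreactivity label is that of its gate of origin.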
row,Sequence,polyreactivity (PSR sort gate)
1,QVQLVESGRGLVQAGGSLRLSCAASGITFWYYAMGWYRQAPGKERELVASINRSGGSTYADSVKGRFTISRDNAKITVYLQMNSLKPEDTAVYYCAARLYSSVVRYRYGYWGQGTQVTVSS,high polyreactivity
2,QVQLVESGRGLVQAGGSLRLSCAASGITLYTNAMGWYRQAPGKEREFVAGISWNGGRTYYADSVKGRFTISRDNAKNTVYLQMNSLKPEDTAVYYCNARFVYRYKYYYWGQGTQVTVSS,high polyreactivity
3,QVQLVESGRGLVQAGGSLRLSCAASGLTFSKYAMGWYRQAPGKERELVATISRSGGSTYYADSVKGRFTISRDNAKNTVYVQMNSLKPEDTAVYYCAAGSILYGATGEYIYWGQGTQVTVSS,high polyreactivity
4,QVQLVESGRGLVQAGGSLRLSCAASGLTFVYYDMGWYRQAPGKERELVAAITYIGTSTYYADSVKGRFTISRDNAKNTVYLQMNSLKPEDTAVYYCAAPFPIRSGESWRTDLGYDYWGQGTQVTVSS,low polyreactivity
5,QVQLVESGRGLVQAGGSLRLSCAASGNTFNVNAMVWYRQEPGKERELVAAITRSGGITYYADSVKGRFTISRDNAKNTVYLQLNSMKPEDTAVYYCAVEGFGYAYYYFYEYDYWGQGTQVTVSS,high polyreactivity
6,QVQLVESGRGLVQAGGSLRLSCAASGRIFKRYTMGWYRPAPGKETELVAGITFSGGSTYYADSVKGRFTISRDNAKNTVYLQMNSLKREDTAVYYCAADDAYYTYQYDYWGQGTQVTVSS,low polyreactivity
7,QVQLVESGRGLVQAGGSLRLSCAASGRIFLANAMGWSRQAPGKERELVAAISLSGGRTYYADSVKGRFTISRDIAKNTVYLQMNSLKPEDTAFYYCAAEFYPIGYYGGYDYWGPGTQVTVSS,low polyreactivity
8,QVQLVESGRGLVQAGGSLRLSCAASGRIFLYYAMGWYRQAPGKEREFVAAITYIGGSTYYADSVKGRFTISRDNAKNTVYLQMNSLKPEDTAVYWGQGTQVTVSS,low polyreactivity
9,QVQLVESGRGLVQAGGSLRLSCAASGRIFRVNAMGWYRQAPGKERELVAAISWGGGSTYYADSVKGRFTISRDNAKNTVYLQMNSLKPEDTAVYYCATTLVKSQSRYYYWGQGTQVTVSS,high polyreactivity
10,QVQLVESGRGLVQAGGSLRLSCAASGRIFRVNAMGWYRQAPGKERELVAAISWGGGSTYYADSVKGRFTISRDNAKNTVYLQMNSLKREDTAVYYCATTLVKSQSRYYYWGQGTQVTVSS,high polyreactivity
11,QVQLVESGRGLVQAGGSLRLSCAASGRIFVYYAMGWYRQAPGKERELVATISSGGSTYYADSVKGRFTISRDNAKNTVYLQMNSLKPEDTAVYYCAADNVNRYLAYYYKGDYWGQGTQVTVSS,low polyreactivity
12,QVQLVESGRGLVQAGGSLRLSCAASGRTFRAYAMGWYRQAPGKERELVAAISSRGGSTYYADSVKGRFTISRDNAKNTVYFQMNSLKPEDTAVYYCNVDRYVRGLITFDYWGQGTQVTVSS,high polyreactivity
13,QVQLVESGRGLVQAGGSLRLSCAASGRTFSYYVMGWYRQAPGKERELVAAISDSGGSTYYADSVKGRFTISRDNAKNTVYLQMNSLKPEDTAVYYCATDSYWYRLREYNYWGQGTQVTVSS,high polyreactivity
14,QVQLVESGRGLVQAGGSLRLSCAASGRTIKYYAMGWYRQAPGKDRELVAVISWSGGSTYYADSVKGRFTISRDNAKNTVYLQMNSLKPEDTAVYYCNAYVYAYYAGYNYWGQGTQLTVSS,high polyreactivity
15,QVQLVESGRGLVQAGGSLRLSCAASGRTLAFNAMGWYRQAPGKERELVAVIRNGTSTNYADSVKGRFTISRDNAKNTVYLQMNSLKPEDTAVYYCNVPYYLPSYLSGYDYWGQGTQVTVSS,low polyreactivity
16,QVQLVESGRGLVQAGGSLRLSCAASGSIFEQNVMGWYRQAPGKERELVAAITRGGSTNYADSVKGRFTISRDNAKNTVYLQMNSLKPEDTAVYYCSKRRWLGPSTLGYWGQGNQVTVSS,low polyreactivity
17,QVQLVESGRGLVQAGGSLRLSCAASGSIFSSYAMGWYRQAPGKERELVAAITWSGGRTYYADSVKGRFTISRDNAKNTVYLQMNSLKPEDTAVYYCNAVYLAYGGDYWGQGTQVTVSS,high polyreactivity
18,QVQLVESGRGLVQAGGSLRLSCAASGSILRNYAMGWYRQAPGKERELVAAISKSGGTTYYADSVKGRFTISRDNAKNTVYLQMNSLKPEDTAVYYCAARPGYLYDYWGQGTQVTVSS,high polyreactivity
19,QVQLVESGRGLVQAGGSLRLSCAASGSILYSYAMGWYRQAPGKERELVAAISSSGGTNYAASVKGSFTISRDNAKNTVYLQMNSLKPEDTEVYYCNADVLDGGYDYWGQGTQVTVSS,low polyreactivity
20,QVQLVESGRGLVQAGGSLRLSCAASGSTFGGYAMGWNRPAPGKERELVAAISIEGGSTYYAESVKGRFTISRDNAKNTVYLQMNSLKPEDTAVYYCNADEYYYGYNYWGQATQVTVSS,low polyreactivity
21,QVQLVESGRGLVQAGGSLRLSCAASGSTFKRYVIGWYRQAPGKERELVAVINCSGGSTYADSVKGRYTISRDNAKNTVYLQMNSLKPEDTAVYYCAKYKYYRYWGQRTQVTVSS,high polyreactivity
22,QVQLVESGRGLVQAGGSLRLSCAASGSTINYKAMGWYRQAPGKERELVAAIDSGVSTNYADSVKGLFTISRDHAKNTVYLQMNSLKPEDTAVYYCNADPDYFDYWGQGTQVTVSS,low polyreactivity

row,Sequence,polyreactivity (PSR sort gate)
1,QVQLVESGRGLVQAGGSLRLSCAASGSTLGVNAMGWYRQAPGKERELVAAISRSGTSTYYADSVKGRFTISRDNAKNTVYLQMNSLKPEDTAVYYCAAQYVIFGSRSRQFIEYEYWGQGTQVTVSS,high polyreactivity
2,QVQLVESGRGLVQAGGSLRLSCAASGTYGYYAMGWYRQAPGKQRELVAAISGSGGSTYYADSVKGRFTISRDNAKNTVYLQMNSLKPEDTAVYYCAKRRRYGGRWVSGDYWGQGTQVTVSS,high polyreactivity
3,QVQLVESGRGLVQAGGSLRLSGAASGITQDDYDMGWSRQAPGKQRELVAAITSGGSTNYAHSVKGRFTNSRDNATNTVYLQMNSLKPEDTAVYYCAADTARTRIFDYWGQGTQVTVSS,low polyreactivity
4,QVQLVESGRGLVQAGGSLRLSSAASGSISLFLTMGWYRQAPGKERELVAAINYTDITKYADSVKGRFTISRDNAKNTVYLQMKSLKPDDTAVYYCARDEGYEYPLGRGGYWGQGTQVTVSS,low polyreactivity
5,QVQLVESGRGLVQAGGTLRLSCAASGFIFATNTMGWYRQAPGKERELVAASSTYYADSVKGRFTISRDNAKNTVYLQMNSLKPEDTAVYYCNADRDSYIGFVDWAGEYWGQGTQVTVSS,low polyreactivity
6,QVQLVESGRGLVQAGVSLRLSCAASGSIFDPNAMGWYRQAPGKERELVAAITSGGGSTYYADSVKGRFTISRDNAKNTVYLQMNSLKPEDTAVYYCNKVFVLQYKFVAWFDYWGQGTQVTVSS,low polyreactivity
7,QVQLVESGRGLVQEGGSLRLSCAPSGSTFTSYAMGWSRQAPGKERELVAAINYSGGSTNYADSVKGRFTLSRDNAMNTVYLQMNSLKPEDTAVYYFNVVRRSPGDYSYYYWGQGTQVTVSS,low polyreactivity
8,QVQLVESGVCLVQAGGSLLLSCAASRRIFRNAMGWYRHAPGKERELVAAISSGGTTNYADSVKGRFTISRDNAKNTVYLLMNSLKPEDTAVYYCAAAPSSYRYRYVVFTFGYWGQGTQVTVSS,high polyreactivity
9,QVQLVESGVCLVQAGRSLPLSCAASGFTFDSNAMGWSRQAPGNESELVAAISASRDSTYYADSVKGRFTISRDNAKNTVYLQMNSLKPEETAVYYCAADSSDWPYDYWGQCTQVTVSS,low polyreactivity
10,QVQLVESGVGFVQAGASLRLSSAASGSIFRINAMGWYRQAPGKVRELVAAITRSGGSTFYADSVKGRFTMSRDYAKNTVYFQMHSLTPEDTAVYFCAAVWYYSTVPARYEYWGQGTQVTVSS,low polyreactivity
11,QVQLVESGVGIVQAGGSLRISCAASGTNFLFYAMGWYRQAPGKERELVATISRGGSTYYADSVKGRFTISRDNAKNTVYFQMKSLKPEDTAVYYCAARATRVTIAPRYGYWGQGTQVTVSS,low polyreactivity
12,QVQLVESGVGIVQAGGSLRLSCAASGSIFKTNAMGWYRHAPGNERELVAAITGSGGSTYYADSVKGRFTISRDNAKNNVYLQMMSLKPEDTAVYYCAKRSYRPILRWSYDYWGQGTQVTVSS,low polyreactivity
13,QVQLVESGVGLLQAGGILRISCASSGITFAWYAMVRYRQAPGKERELVAAIDDRGGSTYYADSVKGRFTISRDNAKNTVYFQMNSLKPEDTAVFYCNADTPSYEPYRLDYWGHGTQVTVSS,low polyreactivity
14,QVQLVESGVGLLQAGGSLRLSCAAYGYTMGLYRQAPGKEREFVAAINQTGGSTSADSVKGRFTISRDNANNTVYLQLNSLKPEDTAVYYCAADISVYSDSHDVSINYRYDYWGLGTQVTVSS,low polyreactivity
15,QVQLVESGVGLVPAGGSLRLSCAASGSTFSANAMGWYRQAPGKERELVAAITYRGANTYYADSVKGRFTISRDNAKNTVYLQLNSLKPEDTAVYYCAAEYAYHHVGFGYWGQGTQVTVSS,low polyreactivity
16,QVQLVESGVGLVQAGGILRLSCAASGSIFAVNAMGWYRQAPGKERELFAAISKRGGSTYYADSVKGRFTISRDNAKNTVYLQMNSLKPEDTAVYYCAARILVTYHRDYYYWGLGTQVTVSS,high polyreactivity
17,QVQLVESGVGLVQAGGRLRLSCAASGSTFLRYAMGWYRPAPGKERELVAAISYSGGSTYYADSVKGRFTISRDNAKNTVYLQMNSLKPEDTAVYYCNAGVFANDNGGRRDQFTWEYEYWGQGTQVTVSS,low polyreactivity
18,QVQLVESGVGLVQAGGSHRLSCAASGPTFRYNTMGWYRQAPGKERELVASISSGDRTDYADSVKGRFTISRDNAKYTVYLQMNSLKPEDTAVYYCNNKWYSIYYYWGQGTQVTVSS,high polyreactivity
19,QVQLVESGVGLVQAGGSLRISCAASGFIFDWNAMGWYRQAPGKERELVAAISSGGSTHYADSVKGRFTISRDNAKNTVYLQMNSLKPEDTAVYYCAARFPQWRYSRRTGERFDYWGQGTQVTVSS,low polyreactivity
20,QVQLVESGVGLVQAGGSLRISCAASGFIFVTNVMGWYRQAPGKEREFVAAITARGGTTYYADSVKGRFTISRDNAKNTVYLQMNRLKPEDTAVYYCAAGYGVIKSLSHFYYWGQGTQVTVSS,low polyreactivity
21,QVQLVESGVGLVQAGGSLRISCAASGRILGYYAMGWYRQAPGKEREMVAGISYSAGRTYYADSVKGRFTISRDNAKNTVYLQMNSLKPEDTAVYYCAKALVRSGSTRGTTGYYYWGQGTQVTVSS,high polyreactivity
